Data as given in paper PMC9620997 (Gut Microbes, 2022).

Target: T1, 6xHis-tagged TssI2 (purified) (Vibrio fluvialis 85003, UniProt A0A1W6EUI3 1-1012)
T1 sequence: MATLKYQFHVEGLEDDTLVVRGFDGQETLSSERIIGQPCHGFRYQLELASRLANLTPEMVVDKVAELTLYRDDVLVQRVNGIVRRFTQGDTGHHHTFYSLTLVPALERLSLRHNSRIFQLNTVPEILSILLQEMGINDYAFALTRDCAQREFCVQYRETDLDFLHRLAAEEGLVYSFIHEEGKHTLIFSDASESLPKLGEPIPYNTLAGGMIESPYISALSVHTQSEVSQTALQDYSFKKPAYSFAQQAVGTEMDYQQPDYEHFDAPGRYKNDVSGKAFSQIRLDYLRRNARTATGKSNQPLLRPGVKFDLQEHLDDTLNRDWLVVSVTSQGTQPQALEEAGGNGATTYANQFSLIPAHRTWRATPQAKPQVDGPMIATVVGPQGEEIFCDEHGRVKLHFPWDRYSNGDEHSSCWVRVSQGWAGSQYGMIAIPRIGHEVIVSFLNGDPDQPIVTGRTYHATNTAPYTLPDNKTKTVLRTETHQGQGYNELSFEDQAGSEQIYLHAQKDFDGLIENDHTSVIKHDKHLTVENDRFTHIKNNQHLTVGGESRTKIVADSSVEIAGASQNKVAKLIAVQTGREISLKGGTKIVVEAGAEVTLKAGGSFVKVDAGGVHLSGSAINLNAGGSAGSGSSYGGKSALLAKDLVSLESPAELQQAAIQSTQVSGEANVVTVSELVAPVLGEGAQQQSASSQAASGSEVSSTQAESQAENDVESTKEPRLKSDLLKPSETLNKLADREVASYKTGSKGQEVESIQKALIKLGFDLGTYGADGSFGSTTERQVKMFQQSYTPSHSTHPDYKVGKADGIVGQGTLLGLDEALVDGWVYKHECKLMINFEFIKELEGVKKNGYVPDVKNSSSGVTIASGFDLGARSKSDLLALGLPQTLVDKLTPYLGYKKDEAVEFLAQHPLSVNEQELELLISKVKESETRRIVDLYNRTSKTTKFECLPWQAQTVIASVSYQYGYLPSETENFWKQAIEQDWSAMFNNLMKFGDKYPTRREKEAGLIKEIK
Test: ITC

B1: 6xHis-tagged TsiI2^19-127 (purified) (domain or fragment)
chain: FPTNEVYAYLDITSFNSSLIQKAARGQKHFSDLKIPNPVISKDTILIESEYWKYEMQFVKEDDSGIHVCFVDKAKWGTYDTQTPMIIRKYADEYVAIKMNSDVCEDFAK
  Kd: 1.07 nM
